Measured values published in the supplement of paper PMC6755084.

B1: F1*; the commonest letter at each place (parent)
chain: GAGACCGCAACTGAAAAGTTGTTATCACTTGTCGTAAGACACTTTGGATGGGTTGAAGTTCTGCACGTAGAAGCAAAAGGC

Variants of: B1
Test: fraction ligated after 30 min (ligated reads / total reads); higher = more ligase activity
Details: with F1*sub RNA substrate (template-directed ligation), 42 °C
Procedure: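 Chip-synthesised pool of F1* ligase ribozyme variants (all single and double substitutions, single, double and triple deletions in the catalytic core and GAA bulge, plus designed variants) was transcribed with T7 and reacted as a pool with excess substrate F1*sub for 30 min at 42 C in 50 mM EPPS pH 8.5, 25 mM MgCl2. Ligated and unligated bands were separated by PAGE, barcoded by RT and deep sequenced; fraction ligated = ligated reads / total reads per variant, relative activity = FL / FL of wild type (0.826). Sequences are the DNA template of the ribozyme.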

Variant | fraction ligated
A27G A57T | 0.81
A27G C28A | 0.805
A27G C28G | 0.777
A27G C28T | 0.813
A27G C33A | 0.8
A27G C33G | 0.846
A27G C33T | 0.828
A27G C40A | 0.79
A27G C40G | 0.813
A27G C40T | 0.817
A27G C42A | 0.827
A27G C42G | 0.812
A27G C42T | 0.817
A27G G31A | 0.776
A27G G31C | 0.798
A27G G31T | 0.791
A27G G34A | 0.831
A27G G34C | 0.804
A27G G34T | 0.804
A27G G38A | 0.83
A27G G38C | 0.798

Variant | fraction ligated
A27G G38T | 0.824
A27G G46A | 0.83
A27G G46C | 0.795
A27G G46T | 0.796
A27G G47A | 0.805
A27G G47C | 0.583
A27G G47T | 0.329
A27G G50A | 0.244
A27G G50C | 0.161
A27G G50T | 0.596
A27G G55A | 0.801
A27G G55C | 0.554
A27G G55T | 0.79
A27G T29A | 0.829
A27G T29C | 0.788
A27G T29G | 0.806
A27G T30A | 0.839
A27G T30C | 0.811
A27G T30G | 0.846
A27G T32A | 0.795
A27G T32C | 0.77

Variant | fraction ligated
A27G T32G | 0.827
A27G T35A | 0.847
A27G T35C | 0.812
A27G T35G | 0.839
A27G T43A | 0.829
A27G T43C | 0.806
A27G T43G | 0.796
A27G T44A | 0.812
A27G T44C | 0.81
A27G T44G | 0.813
A27G T45A | 0.694
A27G T45C | 0.357
A27G T45G | 0.217
A27G T49A | 0.721
A27G T49C | 0.601
A27G T49G | 0.774
A27T | 0.8
A27T A36C | 0.868
A27T A36G | 0.862
A27T A36T | 0.798
A27T A37C | 0.818

Variant | fraction ligated
A27T A37G | 0.846
A27T A37T | 0.808
A27T A39C | 0.782
A27T A39G | 0.84
A27T A39T | 0.783
A27T A41C | 0.766
A27T A41G | 0.776
A27T A41T | 0.779
A27T A48C | 0.729
A27T A48G | 0.794
A27T A48T | 0.787
A27T A56C | 0.787
A27T A56G | 0.791
A27T A56T | 0.792
A27T A57C | 0.775
A27T A57G | 0.794
A27T A57T | 0.804
A27T C28A | 0.829
A27T C28G | 0.802
A27T C28T | 0.798
